Article PMC8399149, “Engineering of Yeast Old Yellow Enzyme OYE3 Enables Its Capability Discriminating of (E)-Citral and (Z)-Citral” (Molecules, 2021)

Experiments:
purified protein [1] = substrate: CC(C)=CCC/C(C)=C/C=O; assay: purified protein; type: biochemical, Saccharomyces cerevisiae; conditions: FMN, NADPH active site
purified protein [2] = substrate: CC(C)=CCC/C(C)=C\C=O; assay: purified protein; type: biochemical, Saccharomyces cerevisiae; conditions: FMN; NADPH active site; H191/N194 hydrogen bonds with the carbonyl oxygen of citral, hydride from FMNH2 to Cβ, Y196 proton donor (docking)
[3] = H191/N194 hydrogen bonds with the carbonyl oxygen of citral, hydride from FMNH2 to Cβ, Y196 proton donor (docking)

Protein | Km (purified protein [1]; accommodation similar to OYE3 (docking)) | Km (purified protein [2]) | Vmax (purified protein [2]) | kcat (purified protein [2]) | kcat/Km (purified protein [2]) | Km (purified protein [1]; [3]) | Vmax (purified protein [1]; [3]) | kcat (purified protein [1]; [3]) | kcat/Km (purified protein [1]; [3])
old yellow enzyme OYE3 (Saccharomyces cerevisiae S288C; S297F/W117G) (protein) MPFVKGFEPISLRDTNLFEPIKIGNTQLAHRAVMPPLTRMRATHPGNIPNKEWAAVYYGQRAQRPGTMIITEGTFISPQAGGYDNAPGIWSDEQVAEWKNIFLAIHDCQSFAWVQLGSLGWASFPDVLARDGLRYDCASDRVYMNATLQEKAKDANNLEHSLTKDDIKQYIKDYIHAAKNSIAAGADGVEIHSANGYLLNQFLDPHSNKRTDEYGGTIENRARFTLEVVDALIETIGPERVGLRLSPYGTFNSMSGGAEPGIIAQYSYVLGELEKRAKAGKRLAFVHLVEPRVTDPFLVEGEGEYSEGTNDFAYSIWKGPIIRAGNYALHPEVVREQVKDPRTLIGYGRFFISNPDLVYRLEEGLPLNKYDRSTFYTMSAEGYTDYPTYEEAVDLGWNKN | 90 µM | – | – | – | – | – | – | – | –
old yellow enzyme OYE3 (Saccharomyces cerevisiae S288C) (protein) PFVKGFEPISLRDTNLFEPIKIGNTQLAHRAVMPPLTRMRATHPGNIPNKEWAAVYYGQRAQRPGTMIITEGTFISPQAGGYDNAPGIWSDEQVAEWKNIFLAIHDCQSFAWVQLWSLGWASFPDVLARDGLRYDCASDRVYMNATLQEKAKDANNLEHSLTKDDIKQYIKDYIHAAKNSIAAGADGVEIHSANGYLLNQFLDPHSNKRTDEYGGTIENRARFTLEVVDALIETIGPERVGLRLSPYGTFNSMSGGAEPGIIAQYSYVLGELEKRAKAGKRLAFVHLVEPRVTDPSLVEGEGEYSEGTNDFAYSIWKGPIIRAGNYALHPEVVREQVKDPRTLIGYGRFFISNPDLVYRLEEGLPLNKYDRSTFYTMSAEGYTDYPTYEEAVDLGWNKN | – | 70 ± 10 µM | 0.12 µmol/min/mg | 0.1 ± 0.01 s⁻¹ | 1490 ± 80 M⁻¹ s⁻¹ | 50 ± 10 µM | 0.16 µmol/min/mg | 0.13 ± 0.02 s⁻¹ | 2760 ± 110 M⁻¹ s⁻¹
